T1: cyno TIM-3-His6 (cynomolgus monkey)
T1 construct: Made in HEK293 cells; not shown: 6-His tag
T1 chain: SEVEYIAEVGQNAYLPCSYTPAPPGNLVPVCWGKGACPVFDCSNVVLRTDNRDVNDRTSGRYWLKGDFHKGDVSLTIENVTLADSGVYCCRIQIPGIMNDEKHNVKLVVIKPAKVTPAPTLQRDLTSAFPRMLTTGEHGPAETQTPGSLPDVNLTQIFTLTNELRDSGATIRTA


Assays:
[1] = biological target: T2, wild-type TIM-3 (hu TIM-3), HEK-expressed (human, UniProt Q8TDQ0 22-202, limits assumed); assay: SPR
T2 construct: Soluble protein of the mutagenesis study

[2] = biological target: T3, human TIM-3 ECD with 6-His tag (hu TIM-3-His6) (human, UniProt Q8TDQ0 22-200); assay: SPR (Biacore)
T3 construct: Novoprotein Cat# C356; the entry includes the His tag; also called hTIM3-His; human TIM3-His6

cyno TIM-3-His6 = biological target: T1, cyno TIM-3-His6; assay: SPR (Biacore)
[3] = biological target: T4, human TIM-3 on huTIM-3-CHO-S cells (human, UniProt Q8TDQ0 22-202); assay: FACS on CHO-S-hTIM-3 cells
T4 construct: Membrane-anchored human TIM-3 ECD (NP_116171) stably expressed on CHO-S cells; also called CHO-S-hTIM3; CHO-S-hTIM-3; not shown: membrane anchor of the expression vector, not described

[4] = biological target: T3, human TIM-3 ECD with 6-His tag (hu …); assay: SPR (Biacore), relative to 3903E11 (VH1.0, VL1.0)

| Binder | Kd [1] [nM] | Kd [2] [nM] | Kd (cyno TIM-3-His6) [nM] | MFI at 0.1 µg/ml [3] [MFI] | MFI at 1 µg/ml [3] [MFI] | MFI at 10 µg/ml [3] [MFI] | Human TIM3 KD Ratio to Parent [4] |
| --- | --- | --- | --- | --- | --- | --- | --- |
| 27.12E12 (antibody, V domains shown) VH: EVQLQQSGAELVRPGALVKLSCKASGFNIKDYYMYWMKQRPEQGLEWIGWIDPENVKTIYDPKFQGRATLTADTSSNTAYLQLSSLTSEDTAVYYCTRDFGYVGFFDVWGAGTTVTVSS VL: DIVMTQSQKFMSTSVGDRVSVNCKASQNVGTNVVWYQQKPGQSPKALIYSASYRYSGVPDRFTGSGSGTDFTLTISTVQSEDLAEYFCQQYNSYPLTFGGGTKLEIKR | 51.6 |  |  |  |  |  |  |
| 3903E11 (VH1.0, VL1.1) (antibody, human IgG1, lambda, Pair-wise combination of parental heavy chain and VL1.1-CL; IgG1 lambda) heavy: not shown light: QSALTQPRSVSGSPGQSVTISCTGTSSDVGGYNYVSWYQQHPGKAPKLMIFDVSKRPSGVPDRFSGSKSGNTASLTISGLQAEDEADYYCSSYADSVVFGGGTKVTVLGQPKAAPSVTLFPPSSEELQANKATLVCLISDFYPGAVTVAWKADSSPVKAGVETTTPSKQSNNKYAASSYLSLTPEQWKSHKSYSCQVTHEGSTVEKTVAPTECS |  | 2.7 | 6.5 | 148 | 1460 | 1870 | 0.78 |
| 3903E11 (VH1.3, VL1.1) (antibody, human IgG1, lambda, IgG1 lambda) heavy: not shown light: QSALTQPRSVSGSPGQSVTISCTGTSSDVGGYNYVSWYQQHPGKAPKLMIFDVSKRPSGVPDRFSGSKSGNTASLTISGLQAEDEADYYCSSYADSVVFGGGTKVTVLGQPKAAPSVTLFPPSSEELQANKATLVCLISDFYPGAVTVAWKADSSPVKAGVETTTPSKQSNNKYAASSYLSLTPEQWKSHKSYSCQVTHEGSTVEKTVAPTECS |  | 4.7 | 19.5 | 105 | 1050 |  |  |
| 3903E11 (VH1.2, VL1.0) (antibody, human IgG1, lambda, IgG1 lambda) heavy: not shown light: SYELTQPRSVSGSPGQSVTISCTGTSSDVGGYNYVSWYQQHPGKAPKLMIFDVSKRPSGVPDRFSGSKSGNTASLTISGLQAEDEADYYCSSYADSVVFGGGTKVTVLGQPKAAPSVTLFPPSSEELQANKATLVCLISDFYPGAVTVAWKADSSPVKAGVETTTPSKQSNNKYAASSYLSLTPEQWKSHKSYSCQVTHEGSTVEKTVAPTECS |  | 2.2 | 5.5 | 156 | 1510 | 1950 | 0.62 |
| 3903E11 (VH1.3, VL1.3) (antibody, IgG1, IgG1 lambda) heavy: not shown light: QSALTQPRSVSGSPGQSVTISCTGTSSDVGGYNYVSWYQQHPGKAPKLMIYDVSKRPSGVPDRFSGSKSGNTASLTISGLQAEDEADYYCSSYADSVVFGGGTKVTVLGQPKAAPSVTLFPPSSEELQANKATLVCLISDFYPGAVTVAWKADSSPVKAGVETTTPSKQSNNKYAASSYLSLTPEQWKSHKSYSCQVTHEGSTVEKTVAPTECS |  | 4.5 |  | 82 | 1020 |  |  |
| 3903E11 (VH1.0, VL1.3) (antibody, IgG1, IgG1 lambda) heavy: not shown light: QSALTQPRSVSGSPGQSVTISCTGTSSDVGGYNYVSWYQQHPGKAPKLMIYDVSKRPSGVPDRFSGSKSGNTASLTISGLQAEDEADYYCSSYADSVVFGGGTKVTVLGQPKAAPSVTLFPPSSEELQANKATLVCLISDFYPGAVTVAWKADSSPVKAGVETTTPSKQSNNKYAASSYLSLTPEQWKSHKSYSCQVTHEGSTVEKTVAPTECS |  | 2.7 | 6.7 | 162 | 1540 | 1930 |  |
| 3903E11 (VH1.1, VL1.3) (antibody, IgG1, IgG1 lambda) heavy: not shown light: QSALTQPRSVSGSPGQSVTISCTGTSSDVGGYNYVSWYQQHPGKAPKLMIYDVSKRPSGVPDRFSGSKSGNTASLTISGLQAEDEADYYCSSYADSVVFGGGTKVTVLGQPKAAPSVTLFPPSSEELQANKATLVCLISDFYPGAVTVAWKADSSPVKAGVETTTPSKQSNNKYAASSYLSLTPEQWKSHKSYSCQVTHEGSTVEKTVAPTECS |  | 7.4 | 22.3 |  |  |  |  |
| 3903E11 (VH1.0, VL1.2) (antibody, human IgG1, lambda, IgG1 lambda) heavy: not shown light: SYELTQPRSVSGSPGQSVTISCTGTSSDVGGYNYVSWYQQHPGKAPKLMIYDVSKRPSGVPDRFSGSKSGNTASLTISGLQAEDEADYYCSSYADSVVFGGGTKVTVLGQPKAAPSVTLFPPSSEELQANKATLVCLISDFYPGAVTVAWKADSSPVKAGVETTTPSKQSNNKYAASSYLSLTPEQWKSHKSYSCQVTHEGSTVEKTVAPTECS |  | 3.4 | 8.6 | 140 | 1340 | 1930 |  |
| 3903E11 (VH1.2, VL1.2) (antibody, human IgG1, lambda, IgG1 lambda) heavy: not shown light: SYELTQPRSVSGSPGQSVTISCTGTSSDVGGYNYVSWYQQHPGKAPKLMIYDVSKRPSGVPDRFSGSKSGNTASLTISGLQAEDEADYYCSSYADSVVFGGGTKVTVLGQPKAAPSVTLFPPSSEELQANKATLVCLISDFYPGAVTVAWKADSSPVKAGVETTTPSKQSNNKYAASSYLSLTPEQWKSHKSYSCQVTHEGSTVEKTVAPTECS |  | 1.6 | 6.3 | 114 | 1300 | 1900 |  |
| 3903E11 (VH1.1, VL1.1) (antibody, human IgG1, lambda, IgG1 lambda) heavy: not shown light: QSALTQPRSVSGSPGQSVTISCTGTSSDVGGYNYVSWYQQHPGKAPKLMIFDVSKRPSGVPDRFSGSKSGNTASLTISGLQAEDEADYYCSSYADSVVFGGGTKVTVLGQPKAAPSVTLFPPSSEELQANKATLVCLISDFYPGAVTVAWKADSSPVKAGVETTTPSKQSNNKYAASSYLSLTPEQWKSHKSYSCQVTHEGSTVEKTVAPTECS |  | 7.6 | 17.9 | 154 | 1390 |  |  |
| 3903E11 (VH1.3, VL1.2) (antibody, human IgG1, lambda, IgG1 lambda) heavy: not shown light: SYELTQPRSVSGSPGQSVTISCTGTSSDVGGYNYVSWYQQHPGKAPKLMIYDVSKRPSGVPDRFSGSKSGNTASLTISGLQAEDEADYYCSSYADSVVFGGGTKVTVLGQPKAAPSVTLFPPSSEELQANKATLVCLISDFYPGAVTVAWKADSSPVKAGVETTTPSKQSNNKYAASSYLSLTPEQWKSHKSYSCQVTHEGSTVEKTVAPTECS |  | 6 | 19.9 | 87 | 958 |  |  |
| 3903E11 (VH1.2, VL1.1) (antibody, human IgG1, lambda, IgG1 lambda) heavy: not shown light: QSALTQPRSVSGSPGQSVTISCTGTSSDVGGYNYVSWYQQHPGKAPKLMIFDVSKRPSGVPDRFSGSKSGNTASLTISGLQAEDEADYYCSSYADSVVFGGGTKVTVLGQPKAAPSVTLFPPSSEELQANKATLVCLISDFYPGAVTVAWKADSSPVKAGVETTTPSKQSNNKYAASSYLSLTPEQWKSHKSYSCQVTHEGSTVEKTVAPTECS |  | 1.8 | 5.6 | 148 | 1400 | 1930 | 0.52 |
| 3903E11 (VH1.3, VL1.0) (antibody, human IgG1, lambda, IgG1 lambda) heavy: not shown light: SYELTQPRSVSGSPGQSVTISCTGTSSDVGGYNYVSWYQQHPGKAPKLMIFDVSKRPSGVPDRFSGSKSGNTASLTISGLQAEDEADYYCSSYADSVVFGGGTKVTVLGQPKAAPSVTLFPPSSEELQANKATLVCLISDFYPGAVTVAWKADSSPVKAGVETTTPSKQSNNKYAASSYLSLTPEQWKSHKSYSCQVTHEGSTVEKTVAPTECS |  | 6.4 | 19.3 | 105 | 957 |  |  |
